How the values were obtained:
[1] = target: T1, lipidated recombinant human tissue factor (Innovin) (human, UniProt P13726 33-295, limits assumed); assay: cell-based or functional assay
[2] = target: T1, lipidated recombinant human tissue …; assay: cell-based or functional assay; remark: listed apart in the source
[3] = target: T2, recombinant human tissue factor (human, UniProt P13726 33-251, limits assumed); assay: SPR (BIAcore), recombinant human TF immobilized on CM5 chip, antibody 0.125-1 nM; apparent Ka
T2 construct: also called TF; human TF
Method: (§1) The affinity of humanized anti-TF antibody for TF was determined by surface plasmon resonance (BIAcore from Pharmacia Biosensor) with recombinant human tissue factor covalently immobilized on a CM5 sensor chip.

[4] = target: T2, recombinant human tissue factor; assay: SPR (BIAcore), recombinant human TF immobilized on CM5 chip, antibody 0.125-1 nM; apparent Kd
Method: as §1

B1: hOAT (humanized IgG One Anti-Tissue Factor antibody) (antibody)
heavy: not shown
light: DIQMTQSPASLSASVGDRVTITCLASQTIDTWLAWYLQKPGKSPQLLIYAATNLADGVPSRFSGSGSGTDFSFTISSLQPEDFATYYCQQVYSSPFTFGQGTKLEIKRTVAAPSVFIFPPSDEQLKSGTASVVCLLNNFYPREAKVQWKVDNALQSGNSQESVTEQDSKDSTYSLSSTLTLSKADYEKHKVYACEVTHQGLSSPVTKSFNRGEC
With B1 the “inhibition of TF function in PT assay at above 12.9 nM antibody” value (“inhibition of TF function in PT assay” for short) [1] was ~95%, the “PT Time (in seconds) at 12.9 nM antibody (12.2 s at 0 nM)” value [2] was 18.9 s and the “PT Time (in seconds) at 25.8 nM antibody (12.2 s at 0 nM)” value [2] was 33.7 s. For the same binder, the “PT Time (in seconds) at 51.6 nM antibody (12.2 s at 0 nM)” value [2] was 82.1 s.

B2: hFAT (humanized IgG Four Anti-Tissue Factor antibody) (antibody)
heavy: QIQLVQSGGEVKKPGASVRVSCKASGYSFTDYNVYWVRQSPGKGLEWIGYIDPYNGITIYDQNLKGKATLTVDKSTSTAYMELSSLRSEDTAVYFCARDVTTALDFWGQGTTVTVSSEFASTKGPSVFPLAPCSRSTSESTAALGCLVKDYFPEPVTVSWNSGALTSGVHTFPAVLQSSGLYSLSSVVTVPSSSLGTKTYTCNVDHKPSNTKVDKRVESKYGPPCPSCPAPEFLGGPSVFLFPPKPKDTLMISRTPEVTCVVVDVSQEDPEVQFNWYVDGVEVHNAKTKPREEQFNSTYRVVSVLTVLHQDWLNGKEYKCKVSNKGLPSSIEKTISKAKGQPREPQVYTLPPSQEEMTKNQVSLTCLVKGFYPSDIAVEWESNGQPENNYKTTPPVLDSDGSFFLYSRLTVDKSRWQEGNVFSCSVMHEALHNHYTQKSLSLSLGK
light: DIQMTQSPASLSASVGDRVTITCLASQTIDTWLAWYLQKPGKSPQLLIYAATNLADGVPSRFSGSGSGTDFSFTISSLQPEDFATYYCQQVYSSPFTFGQGTKLEIKRTVAAPSVFIFPPSDEQLKSGTASVVCLLNNFYPREAKVQWKVDNALQSGNSQESVTEQDSKDSTYSLSSTLTLSKADYEKHKVYACEVTHQGLSSPVTKSFNRGEC
notes: also called humanized cH36-IgG4; HC08 + LC09 IgG4 kappa
With B2 the “inhibition of TF function in PT assay” value [1] was ~95%, the “PT Time (in seconds) at 12.9 nM antibody (12.2 s at 0 nM)” value [2] was 20.5 s and the “PT Time (in seconds) at 25.8 nM antibody (12.2 s at 0 nM)” value [2] was 41.7 s. The “PT Time (in seconds) at 51.6 nM antibody (12.2 s at 0 nM)” value [2] was 94.8 s, the Ka [3] was 2.99e+09 M⁻¹ and the Kd [4] was 0.335 nM.

B3: cH36 chimeric anti-tissue factor antibody (antibody, human IgG4, V domains shown)
VH: EIQLQQSGPELVKPGASVQVSCKTSGYSFTDYNVYWVRQSHGKSLEWIGYIDPYNGITIYDQNFKGKATLTVDKSSTTAFMHLNSLTSDDSAVYFCARDVTTALDFWGQGTTLTVSS
VL: DIQMTQSPASQSASLGESVTITCLASQTIDTWLAWYQQKPGKSPQLLIYAATNLADGVPSRFSGSGSGTKFSFKISSLQAEDFVNYYCQQVYSSPFTFGAGTKLELK
notes: Mouse-human chimera; also called Sunol-cH36; chimeric H36
In the case of B3, the “inhibition of TF function in PT assay” value [1] is reported as ~95%, the “PT Time (in seconds) at 12.9 nM antibody (12.2 s at 0 nM)” value [2] is reported as 19.8 s and the “PT Time (in seconds) at 25.8 nM antibody (12.2 s at 0 nM)” value [2] is reported as 40 s. For the same binder, the “PT Time (in seconds) at 51.6 nM antibody (12.2 s at 0 nM)” value [2] was 101 s, the Ka [3] was 7.94e+09 M⁻¹ and the Kd [4] was 0.126 nM.

B4: H36.D2.B7 murine anti-tissue factor monoclonal antibody (antibody, mouse IgG2a, V domains shown)
VH: EIQLQQSGPELVKPGASVQVSCKTSGYSFTDYNVYWVRQSHGKSLEWIGYIDPYNGITIYDQNFKGKATLTVDKSSTTAFMHLNSLTSDDSAVYFCARDVTTALDFWGQGTTLTVSS
VL: DIQMTQSPASQSASLGESVTITCLASQTIDTWLAWYQQKPGKSPQLLIYAATNLADGVPSRFSGSGSGTKFSFKISSLQAEDFVNYYCQQVYSSPFTFGAGTKLELK
Binder B4 has a Ka [3] of 1.56e+10 M⁻¹ and a Kd [4] of 0.064 nM.

From patent US20090092602A1 (published 2009)
